This note sets out measurements from article PMC12345223.

Data set [1] deals with T1, ChCpc1 (Cochliobolus heterostrophus C4 (Tox1+, …, UniProt M2T2C6 1-465)).
T1 sequence: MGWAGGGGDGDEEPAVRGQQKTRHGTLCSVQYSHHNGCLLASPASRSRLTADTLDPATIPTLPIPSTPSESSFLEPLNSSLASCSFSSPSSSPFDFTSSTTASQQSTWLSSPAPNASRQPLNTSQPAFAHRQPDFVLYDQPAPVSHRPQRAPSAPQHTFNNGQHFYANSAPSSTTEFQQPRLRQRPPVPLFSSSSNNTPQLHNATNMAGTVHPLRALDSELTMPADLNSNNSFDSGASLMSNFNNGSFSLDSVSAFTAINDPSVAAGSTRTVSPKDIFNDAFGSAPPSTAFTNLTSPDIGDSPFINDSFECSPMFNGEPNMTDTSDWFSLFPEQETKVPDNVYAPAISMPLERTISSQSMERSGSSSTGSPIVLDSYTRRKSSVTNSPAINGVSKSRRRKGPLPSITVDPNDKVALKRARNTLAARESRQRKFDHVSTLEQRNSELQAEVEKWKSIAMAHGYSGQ
Nature of the data set: EMSA; 100x unlabeled competitor prevents binding; Light Shift Chemiluminescent EMSA Kit (Beyotime), 20 min at 25°C; 6.5% polyacrylamide gel, 0.5x TBE; binding buffer, salt and pH not stated. The settings on record: protein: recombinant, tags: His (pET-32a), chain copies: 2, label: biotin (on forward strand). (In general: Mobility shift assays separate free from complexed probe on a gel.)

The target in data set [2] is T1, ChCpc1. Nature of the data set: EMSA; Light Shift Chemiluminescent EMSA Kit (Beyotime), 20 min at 25°C; 6.5% polyacrylamide gel, 0.5x TBE; binding buffer, salt and pH not stated. The settings on record: protein: recombinant; tags: His (pET-32a); chain copies: 2; label: biotin (on forward strand); blunt.
Data set [3] has as its target T2, ChAtf1 (Cochliobolus heterostrophus C4 (Tox1+, …, UniProt M2TIN4 1-567)).
T2 sequence: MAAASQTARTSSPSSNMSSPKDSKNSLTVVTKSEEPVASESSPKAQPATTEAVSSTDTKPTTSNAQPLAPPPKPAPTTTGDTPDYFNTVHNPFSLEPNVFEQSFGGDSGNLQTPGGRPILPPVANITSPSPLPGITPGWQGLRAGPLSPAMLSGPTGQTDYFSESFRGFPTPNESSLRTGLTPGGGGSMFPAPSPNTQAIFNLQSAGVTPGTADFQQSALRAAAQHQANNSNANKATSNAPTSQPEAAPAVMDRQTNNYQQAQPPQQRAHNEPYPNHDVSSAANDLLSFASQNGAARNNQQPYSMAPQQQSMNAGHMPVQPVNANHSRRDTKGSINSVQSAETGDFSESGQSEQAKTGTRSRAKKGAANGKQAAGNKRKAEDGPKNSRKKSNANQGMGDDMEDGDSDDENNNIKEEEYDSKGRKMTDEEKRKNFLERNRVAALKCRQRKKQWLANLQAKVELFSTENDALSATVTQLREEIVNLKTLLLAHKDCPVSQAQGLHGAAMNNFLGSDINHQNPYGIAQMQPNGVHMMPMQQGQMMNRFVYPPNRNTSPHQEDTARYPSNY
Nature of the data set: EMSA; ChAtf1 alone; Light Shift Chemiluminescent EMSA Kit (Beyotime), 20 min at 25°C; 6.5% polyacrylamide gel, 0.5x TBE; binding buffer, salt and pH not stated. The settings on record: protein: recombinant; tags: His (pET32a); chain copies: 2; label: biotin (on forward strand); blunt.

Data set [4] has as its target T1, ChCpc1. Description: EMSA; strongest of the four ATG probes; Light Shift Chemiluminescent EMSA Kit (Beyotime), 20 min at 25°C; 6.5% polyacrylamide gel, 0.5x TBE; binding buffer, salt and pH not stated. The settings on record: protein: recombinant; tags: His (pET-32a); chain copies: 2; label: biotin (on forward strand); blunt.

B1: ChARG1 promoter probe (dsDNA)
DNA 1: AAGACAGTGGTGGAGATCAAGTTGGATGAGTAACTTGGCGCTGCACTCGATTCGCGTGTT
DNA 2: CCAACTTGATCTCCACCACTGTCTT
As to B1, in data set [1] (printed reverse oligo (25 nt) pairs only with nt 1-25 of the 60-nt forward strand, possibly printed incomplete), the binding result is “binds”.

B2: ChATG5 promoter probe (dsDNA)
DNA 1: CAGCTATGTTGCGTTAGTAAGTCACCCATCTACGCTGTCGC
DNA 2: GCGACAGCGTAGATGGGTGACTTACTAACGCAACATAGCTG
In the case of B2, the binding result in data set [2] is reported as “binds”.

B3: ChATG7 promoter probe (dsDNA)
DNA 1: TCCCAAATGTCGGTCGTGACCCATCGTTCCCTCCATCTCA
DNA 2: TGAGATGGAGGGAACGATGGGTCACGACCGACATTTGGGA
As for B3, in data set [2], the binding result is “binds”.

B4: ChARG4 promoter probe (dsDNA)
DNA 1: CATTGGCGTTTGGGACTGAATTACAATGAGTAATGAAATAACTCACACCACAAAGCAGTA
DNA 2: TACTGCTTTGTGGTGTGAGTTATTTCATTACTCATTGTAATTCAGTCCCAAACGCCAATG
Regarding B4, the binding result in data set [3] is “no binding”; in data set [1] (blunt) it was “binds”.

B5: ChATG8 promoter probe (dsDNA)
DNA 1: GGAGAGCGTGAAGGAGAGAGACGGGATGAGTCAAAGTACCCAGGTAGCCAGGTCATGGGA
DNA 2: TCCCATGACCTGGCTACCTGGGTACTTTGACTCATCCCGTCTCTCTCCTTCACGCTCTCC
As to B5, the binding result in data set [2] is “binds”; in data set [3], “no binding”.

B6: ChATG9 promoter probe (dsDNA)
DNA 1: GCGGCGCGTCACCTGCATGAGTCCCATGTCGATGAGGCGCT
DNA 2: AGCGCCTCATCGACATGGGACTCATGCAGGTGACGCGCCGC
As to B6, the binding result in data set [4] was “binds”.
